Results taken from PMC3149027, “Structural and functional basis for RNA cleavage by Ire1”.

What was measured:
[1] = biological target: Ire1KR32 (wild type) (yeast)
Ire1KR32 = biological target: T1, Ire1KR32 (Saccharomyces cerevisiae? ("yeast"), UniProt P32361 641-1115); assay: competition (inhibition of 32P-HP21 cleavage); apparent Ki; 2 mM Mg2+, 2 mM ADP, 3 uM Ire1KR32; 20 mM HEPES pH 7.4, 70 mM NaCl, 5% glycerol, 2 mM Mg(CH3COO)2, 2 mM ADP, 4 mM DTT, 30 C; details: protein: recombinant; tags: GST removed with Prescission protease; label: none; single strand
T1 sequence: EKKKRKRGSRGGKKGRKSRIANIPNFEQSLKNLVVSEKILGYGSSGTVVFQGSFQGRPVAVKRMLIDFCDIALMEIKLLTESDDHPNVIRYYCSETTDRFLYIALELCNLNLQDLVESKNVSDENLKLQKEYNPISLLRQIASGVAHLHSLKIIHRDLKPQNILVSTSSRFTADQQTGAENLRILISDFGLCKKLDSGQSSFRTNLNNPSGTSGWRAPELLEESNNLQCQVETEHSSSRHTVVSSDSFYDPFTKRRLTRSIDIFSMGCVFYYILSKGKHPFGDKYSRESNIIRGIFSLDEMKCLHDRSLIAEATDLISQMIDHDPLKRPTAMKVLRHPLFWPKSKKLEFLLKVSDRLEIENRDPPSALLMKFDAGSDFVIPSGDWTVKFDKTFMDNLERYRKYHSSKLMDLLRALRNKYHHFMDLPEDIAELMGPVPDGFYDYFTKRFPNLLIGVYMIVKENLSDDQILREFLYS

Molecule	RNase activity (single-turnover cleavage of 32P-HP21) of 1.5 μM wild-type Ire1KR32 titrated with 0.1-15 μM Ire1KR32(H1061N); in trans activation, inhibition at excessive H1061N [1]	Ki (Ire1KR32)
Ire1KR32(H1061N) (domain or fragment)	10 fold	
CCGCAG (ssDNA, 2'-deoxy throughout) [dCdCdGdCdAdG (2'-deoxy-CCGCAG)]		200 ± 50 µM
